Key:
[1] = test system: NSP8 (primase) (SARS-CoV-2)
[2] = molecular target: NSP12 (RNA-dependent RNA polymerase) (SARS-CoV-2) (UniProt P0DTD1)
[3] = test system: N (nucleocapsid) (SARS-CoV-2); conditions: eCLIP in infected Vero E6 cells

| Substance | binding signal [1] [fold] | binding signal [2] [fold] | binding signal [3] [fold] |
| --- | --- | --- | --- |
| SARS-CoV-2 genome 5' end, positive strand | 107 | 573 |  |
| SARS-CoV-2 genome 7436-7526, positive strand |  | 13.7 |  |
| SARS-CoV-2 genome 9602-9620, positive strand |  |  | 9.5 |
